In publication PMC11173989:

Target: tKeima (tetrameric large Stokes shift red fluorescent protein Keima) (Montipora sp.)
Assay: SEC; gel filtration on Sephacryl S-100, 10 mM Tris-HCl (pH 8.0), 200 mM NaCl

Substance: tKeima (tetrameric large Stokes shift red fluorescent protein Keima)
- stoichiometry N: 4
